Legend:
Cog8 = target: T1, Cog8 (S. cerevisiae, UniProt Q04632 1-607); assay: negative-stain single-particle electron microscopy
T1 sequence (looked up): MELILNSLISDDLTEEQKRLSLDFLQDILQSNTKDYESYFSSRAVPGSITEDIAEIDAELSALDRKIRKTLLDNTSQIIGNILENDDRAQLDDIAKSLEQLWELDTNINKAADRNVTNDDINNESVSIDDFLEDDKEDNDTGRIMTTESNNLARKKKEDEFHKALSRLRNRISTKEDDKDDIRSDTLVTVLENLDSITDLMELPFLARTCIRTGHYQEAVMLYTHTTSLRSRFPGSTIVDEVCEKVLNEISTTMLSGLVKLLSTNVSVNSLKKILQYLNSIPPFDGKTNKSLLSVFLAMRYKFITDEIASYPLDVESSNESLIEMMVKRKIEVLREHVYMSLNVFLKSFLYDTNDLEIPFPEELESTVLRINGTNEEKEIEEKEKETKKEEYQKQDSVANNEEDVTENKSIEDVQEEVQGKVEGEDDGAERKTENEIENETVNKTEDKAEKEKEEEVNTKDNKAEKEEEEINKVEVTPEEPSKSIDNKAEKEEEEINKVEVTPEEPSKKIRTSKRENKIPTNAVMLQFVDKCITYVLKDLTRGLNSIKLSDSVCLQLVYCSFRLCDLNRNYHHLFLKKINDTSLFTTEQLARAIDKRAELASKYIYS

[1] = target: T2, Cog2 with an N-terminal 7×His tag (S. cerevisiae, UniProt P53271 1-262); assay: negative-stain single-particle electron microscopy with GFP labelling
T2 sequence (looked up): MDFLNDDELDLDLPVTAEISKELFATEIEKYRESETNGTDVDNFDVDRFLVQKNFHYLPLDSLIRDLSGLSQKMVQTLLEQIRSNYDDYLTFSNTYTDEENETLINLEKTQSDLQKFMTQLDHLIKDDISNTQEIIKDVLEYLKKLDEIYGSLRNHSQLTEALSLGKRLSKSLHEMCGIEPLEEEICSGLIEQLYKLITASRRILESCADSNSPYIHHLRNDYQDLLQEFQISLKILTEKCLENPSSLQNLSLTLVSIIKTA

B1: Cog1 (natural protein, S. cerevisiae, UniProt P53079 1-417, looked up)
chain: MDEVLPLFRDSHIPQIKDYQLELQNDLTKTNEAFQKNLLKNYNKILSLTDSVNDLSLNLKNVDQDFKSLCFNDEKFQLNKLTPLPYQTTTHISPPRDEEKVSIPSQNILVISNWTISINNFCNRIVTSTTPSRIFDELLLNFHELSLIPVPSKFEALVKDKCCRLQKFLVDSMKTLNLTLLQWVKLYNLLNTEFSSKWDDDLLSIFNESLFETLFNDNVQALLISSANSKDHQYHSNQQYKDAIVVDFVNSSTFRDHLIRRTVKEINTHLDTLSTLRAKLKEPETLHKLDIFHDNDTNLNDGTVSPLDDDALKQYIDTAVFYSKGLTNDTTLQIYQTVQPTIEILQNLELYKCPQETLTDLRNKLITQLQEFKTQISSRLPSPLENSTSVVDDFITSYNNHNLLQLVIDQITQLRQQ
B1 was tested, and the binding result (Cog8) was “binds” and the “stoichiometry N” value [1] was 1.

B2: Cog3 (natural protein, S. cerevisiae, UniProt P40094 1-801, looked up)
chain: MARSRKNSLVRDIASHPTIPESQTIVGLLDDSYLFDKLKKLSLAVENSDSLQRTDVSEGCSEVNGSEATTSADVKKTNKYLYYTTYLDQLNIKIDEYKVVLDQTRQVNDQLDSSIKKFRKISQDTGAFIEETKTIYEKQSKLSNLTESIPKALHYFEVLDPIMRRLNHATSPAIVKKSSFTTMLATIDESLRFLDENSDLKDAAAYRIKFKQCLIRACELISHFLTNLLKQTNQEILDKTKNKNSLTGLPSTTRDAFLYSKFYTIADTFKIQVSEIVKRSNEKAYNKYHDELNSILYECFNHYFQTRLRLLTPVIWSHIDEIVVKDKDQGLVKFIQDGKVYFQQLCADEYKLFVEFFPEKECRFKINQWFLQLCEPLYDSIRVRVLKETDICTLCDSVTLFAPYYEFEEGSEEYVKQFTDIQYDKLFEPIVQKVQARLILRVQIYVQQNILSYRPTRDVFMISNRRRKSKTSLQGGNEDATTSDDNPDPLLESYLSSFKNRSILPISPNDADDKSIDSEESTDKISQLQTYYPPLLKTLALLSKIYEMINSVVFDDLAHHVVHDCIVSLRNAYDMVIKSSAGKSDFNNLDISLAYLKNLLMLRDSIQNFNIQYTVNETYLDFSGVEGFFKSLKENGRNVLKKTKSSSILTLARELVPKVVNNMVDARTELISELRNVIKDFTESTSLELIDDTLDINSDEDLLSKNVKLRENIKARLPRIYEQILNYIDDQEIVTNLLDAVQELITQSYSKYYETITELAENGKFAKDQVADVMYLDVFTDFFAKEVADLLRNGDIDTITK
In the case of B2, the “stoichiometry N” value [1] is reported as 1.

B3: Cog4 (natural protein, S. cerevisiae, UniProt Q06096 1-861, looked up)
chain: MEGQKSNASWESSIIEGQLSKNLARYTLLLDKLSTLSQIDKLSEVIANDYAKQSKQLNAFVQQSQSSLNKESRKLELQRTNLTTTLTQFHETVATISSSNARAKAIHDDIETVDQERALVNKTLQFVKDVRTLKNNISLAHSALETKDYLVAATAINEIRSLPDKKLIVSEFAKKVVPSSEIPEEPAILIKNWCKELTSLFQEQFMEATRTQDIKELTLMFKMFPMIGQDVLGLDLYSKYVCDIIADESRKIMSNSMENSTKFQGFFSQVLLHLFKIVSTIINDHSKVIATCYGKKHMVHVMEKVEKEADLQASLILDIFMETRKIERTIHDINEWEHSQKNEDVNIDSNQSDIETDGETEKSSIISIHDLALLIMEFSQILQNWSMYSRFYSVKWNEFSDLHPHVLQPPPPIADGKFALKLKQDKVFDEFQVFVLNHLQRSFRNSISLEELPSLNDLITAVPLNDHDNISYPVTSVLDDLILLVRKNLISVVNTGQFKLLASFLNELVKFFQNRFLVKFMQNKFKLLQSKLASNVSLKRYIPKGEEQSATSRSVSPPANKFSPLSRFTFRGAAASALTNIQSNLQAVVAEDEDSILALHHYLIYLNTLYLSKVYVHRLLSIEILEDDSQRILRDNFPFDNDAAQLQNLIINSEKLVLEQTDKLSKWAVKYLFQNILQNRVRNLLGTVFVNSASSNSSTSNQKNVSRDYSAGSNQKNYITSIEDFEDLSQINSFNSKWNQLIIPYKNILHNEAYAELLSVIVDYIVTTLEQRIWTLEFNELGVTKLDRELSLFIGNMCGLNYNLREKFLKLTQIVLLLGLDDDNFDLTTGDIKDDFNGTFDWVINSQERIKARNMKIDRTQ
With B3 the “stoichiometry N” value [1] was 1.

From paper PMC3113405 (Nature structural & molecular biology, 2010)
